Data from patent publication US20140105889A1 (published 2014).
Where a chain is given by its changes, count along the chain named. Numbers in names are those of the source. Each block holds one binder with its values, some of them ahead of it.

Assays:
mouse FcγRIV [1] = target: T1, mouse FcγRIV (mouse); assay: SPR (Biacore), antibody captured on Protein L, mouse FcγR as analyte, pH 7.4, 25 C (method of Example 4, RU)
T1 construct: Bought soluble receptor; also called mFcgRIV; mFcgR IV

mouse FcγRIV [2] = target: T1, mouse FcγRIV; assay: SPR (Biacore), antibody captured on Protein L, mouse FcγR as analyte, pH 7.4, 25 C
human FcγRIIIa(F) [3] = target: T2, human FcγRIIIa(F) (human, UniProt P08637 17-208, limits assumed); assay: SPR (Biacore), antibody captured on Protein L, human FcγR as analyte, pH 7.4, 25 C
T2 construct: also called hFcgRIIIa(F); hFcgRIIIa

human FcγRIIIa(F) [4] = target: T2, human FcγRIIIa(F); assay: as above; remark: listed apart in the source
[5] = target: T3, human FcRn (soluble human FcRn complexed with beta2-microglobulin) (human, UniProt P61769 21-119); assay: SPR (Biacore), pH 7.0, 25 C, antibody captured by Protein L, human FcRn as analyte
T3 construct: also called hFcRn

[6] = target: T4, human FcRn (soluble human FcRn complexed with β2-microglobulin) (human, UniProt P61769 21-119); assay: Biacore SPR, pH 7.0, 25 C; antibody captured by Protein L, human FcRn as analyte
T4 construct: also called hFcRn

human FcRn [7] = target: T5, human FcRn (human); assay: SPR (Biacore), pH 7.0, 25 C; antibody captured on Protein L, human FcRn injected
T5 construct: Soluble human FcRn complexed with beta2-microglobulin; also called hFcRn; soluble human FcRn complexed with β2-microglobulin

human FcγRIIIa(F) [8] = target: T6, human FcγRIIIa(F) (human, UniProt P08637 17-208, limits assumed); assay: SPR (Biacore), antibody captured on Protein L, human FcgR as analyte, pH 7.4, 25 C; amount normalised to captured antibody
T6 construct: also called hFcgRIIIa(F); allotype F158

human FcγRIIb [9] = target: T7, human FcγRIIb (human, UniProt P31994 43-217, limits assumed); assay: as above
T7 construct: also called hFcgRIIb; FcγIIB
T7 sequence: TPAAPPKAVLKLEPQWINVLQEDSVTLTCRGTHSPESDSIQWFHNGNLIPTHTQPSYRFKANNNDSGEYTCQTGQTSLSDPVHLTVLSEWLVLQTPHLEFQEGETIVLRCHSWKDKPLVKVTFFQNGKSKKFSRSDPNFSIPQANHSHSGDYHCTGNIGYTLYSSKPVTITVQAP

human FcRn [10] = target: T8, human FcRn (human); assay: SPR (Biacore), antibody captured by Protein L, human FcRn as analyte, pH 7.0
T8 construct: Soluble human FcRn complexed with β2-microglobulin; also called hFcRn; soluble human FcRn complexed with β2-microglobulin

human FcRn [11] = target: T5, human FcRn; assay: SPR (Biacore), pH 7.0, 25 C; antibody captured on Protein L, human FcRn injected; remark: listed apart in the source
human FcγRIIIa(F) [12] = target: T9, human FcγRIIIa(F) (human, UniProt P08637 17-208, limits assumed); assay: SPR (Biacore T100), antibody captured by Protein A, FcγR as analyte, HBS-EP+, 25°C, 1:1 Langmuir global fit
T9 construct: also called FcgRIIIaF; hFcgRIIIa(F)

human FcγRIIIa(F) [13] = target: T9, human FcγRIIIa(F); assay: SPR (Biacore T100), ratio of the KD values of Table 24, reference IgG1 (IL6R-G1d/IL6R-L)
human FcγRIIIa(F) [14] = target: T9, human FcγRIIIa(F); assay: SPR (Biacore T100), antibody captured by Protein A, FcγR as analyte, 25°C; weak binding, KD calculated by Equation 5 (1:1 binding model)
human FcγRIIb [15] = target: T10, human FcγRIIb (human, UniProt P31994 43-217, limits assumed); assay: ratio of this variant's SPR KD for FcγRIIaR to its KD for FcγRIIb
T10 construct: also called FcγIIB; hFcgRIIb
T10 sequence: T7 sequence

human FcγRIIa type R [16] = target: T11, human FcγRIIa type R (human, UniProt P12318 36-217); assay: SPR KD of this variant's stronger FcγRIIa allotype binding divided by that of parent IL6R-B3/IL6R-L
T11 construct: also called FcγRIIaR; FcγRIIa(R)
T11 chain: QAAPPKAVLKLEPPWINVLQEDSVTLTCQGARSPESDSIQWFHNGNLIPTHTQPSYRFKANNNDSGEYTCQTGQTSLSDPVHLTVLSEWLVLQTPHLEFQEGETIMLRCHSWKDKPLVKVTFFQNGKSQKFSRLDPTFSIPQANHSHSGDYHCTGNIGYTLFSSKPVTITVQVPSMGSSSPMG

human FcγRIIb [17] = target: T10, human FcγRIIb; assay: SPR KD for FcγRIIb of parent IL6R-B3/IL6R-L divided by that of this variant
human FcγRIIb [18] = target: T10, human FcγRIIb; assay: ratio of this variant's SPR KD for FcγRIIaH to its KD for FcγRIIb
human FcγRIIa type R [19] = target: T11, human FcγRIIa type R; assay: SPR (Biacore), captured antibody, FcγR as analyte, 25 C

T1 sequence (A0A0B4J1G0 21-203): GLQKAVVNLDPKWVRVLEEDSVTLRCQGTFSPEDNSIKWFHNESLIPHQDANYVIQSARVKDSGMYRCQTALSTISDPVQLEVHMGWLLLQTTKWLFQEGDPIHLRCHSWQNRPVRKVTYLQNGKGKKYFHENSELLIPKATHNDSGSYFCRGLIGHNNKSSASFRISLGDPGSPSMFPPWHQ

B2: VH3/L(WT)-IgG1-F698 (antibody, name in EU numbering)
heavy: QVQLQESGPGLVKPSETLSLTCAVSGHSISHDHAWSWVRQPPGEGLEWIGFISYSGITNYNPSLQGRVTISRDNSKNTLYLQMNSLRAEDTAVYYCARSLARTTAMDYWGEGTLVTVSSASTKGPSVFPLAPSSKSTSGGTAALGCLVKDYFPEPVTVSWNSGALTSGVHTFPAVLQSSGLYSLSSVVTVPSSSLGTQTYICNVNHKPSNTKVDKKVEPKSCDKTHTCPPCPAPELLGGPSVFLFPPKPKDTLYISRTPEVTCVVVDVSHEDPEVKFNWYVDGVEVHEAKTKPREEQYNSTYRVVSVLQVLHADWLNGKEYKCKVSNKALPAPIEKTISKAKGQPREPQVYTLPPSRDELTKNQVSLTCLVKGFYPSDIAVEWESNGQPENNYKTTPPVLDSDGSFFLYSKLTVDKSRWQQGNVFSCSVMHEALHYHYTQKSLSLSP
light: not shown
notes: The positions are EU numbering, not positions on the entry; copies: 2 + 2
BINDING AMOUNT (RU) (human FcγRIIIa(F) [3]): 55.9 RU | BINDING AMOUNT (RU) (human FcγRIIIa(F) [4]): 55.9 RU

B4: IgG1-F185 (antibody, name in EU numbering)
heavy: B2 heavy with Y254W, E288N, Q309T, A313Q, I334V
light: not shown
notes: VH3-IgG1 Fc variant; EU numbering
Kd [6]: 260 nM

B5: IgG1-F755 (antibody)
heavy: B2 heavy with P240D, T252S, E288N, Q309T, A313Q
light: not shown
notes: Substitutions by EU numbering; copies: 2 + 2
Kd (human FcRn [7]): 350 nM

B11: IgG1-F770 (antibody)
heavy: B2 heavy with T258A, E288N, Q309T, A313Q
light: not shown
notes: as for B5
Kd (human FcRn [7]): 300 nM

B13: IgG1-F197 (antibody, name in EU numbering)
heavy: B2 heavy with Y254M, P259T, E288N, A313Q, M430L
light: not shown
notes: as for B4
Kd [6]: 33 nM

B15: IgG1-F791 (antibody)
heavy: B2 heavy with E288N, Q309T, A313Q, N317F
light: not shown
notes: as for B5
Kd (human FcRn [11]): 440 nM

B17: IgG1 (IL6R-G1d / IL6R-L) (antibody)
heavy: not shown
light: DIQMTQSPSSLSASVGDRVTITCRASQDISSYLNWYQQKPGKAPKLLIYYTSRLHSGVPSRFSGSGSGTDFTFTISSLQPEDIATYYCQQGNTLPYTFGQGTKVEIK
notes: Anti-human IL-6 receptor antibody; G1d constant region (IgG1 without C-terminal Gly and Lys); L chain of tocilizumab
Kd (human FcγRIIIa(F) [12]): 3.1 µM

B19: IL6R-BP144/IL6R-L (antibody, human IgG1)
heavy: B2 heavy with G239D, P240D, Y254M, E288N, Q309T, A313Q, K328A, Y436N, K441E
light: B17 light
notes: copies: 2 + 2
KD (IIaR)/KD (IIb) (human FcγRIIb [15]): 8.7 | KD value for the stronger of the FcγRIIaR- and FcγRIIaH-binding activities of the variant/that of the parent polypeptide (human FcγRIIa type R [16]): 6.9 | KD(IIb) of the parent polypeptide/KD(IIb) of the altered polypeptide (human FcγRIIb [17]): 5.9 | KD (IIaH)/KD (IIb) (human FcγRIIb [18]): 45.8 | Kd (human FcγRIIa type R [19]): 2900 nM

B22: IL6R-BP089/IL6R-L (antibody, human IgG1)
heavy: B2 heavy with L236Y, P240D, Y254M, E288N, Q309T, A313Q, K328A, A332K, Y436N, K441E
light: B17 light
notes: copies: 2 + 2
KD (IIaR)/KD (IIb) (human FcγRIIb [15]): 16.6 | KD value for the stronger of the FcγRIIaR- and FcγRIIaH-binding activities of the variant/that of the parent polypeptide (human FcγRIIa type R [16]): 6.3 | KD (IIaH)/KD (IIb) (human FcγRIIb [18]): 51.9

Results, then the binder that gave them:

BINDING AMOUNT (mouse FcγRIV [1]): 279 | BINDING AMOUNT (RU) (mouse FcγRIV [2]): 242 RU
B1: antibody with VH3-IgG1-F947 heavy chain and L(WT)-CK light chain (antibody)
heavy: B2 heavy with T252V, E288N, V310P, Y438V
light: not shown
notes: copies: 2 + 2

Kd [5]: 53 nM
B3: IgG1-F1031 (antibody, name in EU numbering)
heavy: B2 heavy with G238A, S241D, T252V, E288N, I334E, Y438V
light: not shown

BINDING AMOUNT (RU) (human FcγRIIIa(F) [8]): 5.83 RU | BINDING AMOUNT (RU) (human FcγRIIb [9]): 3.85 RU
B6: antibody containing VH3-IgG1-F1324 for the heavy chain and L(WT)-CK for the light chain (antibody)
heavy: B2 heavy with L236A, L237A, E288N, Q309T, A313Q, Y438V
light: not shown

Kd (human FcRn [10]): 74.9 nM
B7: IgG1-F1364 (antibody, name in EU numbering)
heavy: B2 heavy with L237R, S241K, T258E, E288N, Q309T, A313Q, Y438F, Q440K, S442E
light: not shown
notes: light chain L(WT)-CK; copies: 2 + 2

BINDING AMOUNT (RU) (human FcγRIIIa(F) [3]): -2.9 RU
B8: VH3/L(WT)-IgG1-F763 (antibody, name in EU numbering)
heavy: B2 heavy with L237R, S241K
light: not shown
notes: as for B2

BINDING AMOUNT (RU) (human FcγRIIIa(F) [4]): -2 RU
B9: VH3/L(WT)-IgG1-F699 (antibody, name in EU numbering)
heavy: B2 heavy with S241K
light: not shown
notes: as for B2

Kd (human FcRn [11]): 330 nM
B10: IgG1-F802 (antibody)
heavy: B2 heavy with E288N, Q309T, A313Q, N317V
light: not shown
notes: as for B5

Kd (human FcRn [10]): 76 nM
B12: IgG1-F1369 (antibody, name in EU numbering)
heavy: B2 heavy with L237R, S241K, S256T, T258E, E288N, Q309T, A313Q, Y438F, Q440R, S442E
light: not shown
notes: as for B7

BINDING AMOUNT (RU) (human FcγRIIIa(F) [8]): 9.51 RU | BINDING AMOUNT (RU) (human FcγRIIb [9]): 5.46 RU
B14: antibody containing VH3-IgG1-F1326 for the heavy chain and L(WT)-CK for the light chain (antibody)
heavy: B2 heavy with L236A, L237A, T252V, E288N, V310P, Y438V
light: not shown

Kd [5]: 130 nM
B16: IgG1-F1039 (antibody, name in EU numbering)
heavy: B2 heavy with L237K, P240D, S241K, E288N, Q309T, A313Q, Y438V
light: not shown

relative KD (KD of IgG1 / KD of the variant) (human FcγRIIIa(F) [13]): 0.061 fold | Kd (human FcγRIIIa(F) [14]): 51 µM
B18: IgG1-v1 (IL6R-G1d_v1 / IL6R-L) (antibody)
heavy: not shown
light: B17 light
notes: IL6R-G1d with P238D (EU numbering)

relative KD (KD of IgG1 / KD of the variant) (human FcγRIIIa(F) [13]): 0.14 fold | Kd (human FcγRIIIa(F) [14]): 23 µM
B20: IgG1-v2 (IL6R-G1d_v2 / IL6R-L) (antibody)
heavy: not shown
light: B17 light
notes: IL6R-G1d with L328E (EU numbering)

Kd (human FcγRIIIa(F) [12]): 8.8 µM | relative KD (KD of IgG1 / KD of the variant) (human FcγRIIIa(F) [13]): 0.35 fold
B21: IgG1-v3 (IL6R-G1d_v3 / IL6R-L) (antibody)
heavy: not shown
light: B17 light
notes: IL6R-G1d with S267E/L328F (EU numbering)
